Source: US20250269003A1, “NANO-ENHANCED VACCINE” (University of Virginia Patent Foundation, priority 2022, published 2025)

Experiments:
[1] = Peptide encapsulation within nanoliposomes (mass spectrometry); format: physicochemical; details: for Original mass encapsulation: neutral formulation and 1X PBS; for Optimized mass encapsulation: new liposome formulation (charge and buffer B1-B4) keeping optimal pH, full vaccine, n = 3 separate experiments in triplicate; for Encap. Efficiency: optimized formulation, based upon initial 500 μg/ml peptide concentration; for Encap. improvement: optimized versus original mass encapsulation
Excerpt: (§1) Encapsulation of Melanoma Peptides within Nanoliposomes. The six melanoma peptides that induce melanoma-reactive CD4^+ T cells in patients as well as their protein epitope and ideal pH range for solubility are provided in Table 1. A neutral formulation was initially chosen to encapsulate all peptides and then, through an iterative process, modified formulations to optimize encapsulation efficiencies for several of the peptides. Through this process, three different nanoliposome formulations (neutral, cationic, and anionic) suitable for distinct peptides were identified. However, all of the presently disclosed formulations contained the same base lipid components, including 1,2-distearoyl-sn-glycero-3-phosphocholine (DSPC); 1,2-Dioleoyl-sn-glycero-3-phosphoethanolamine (DOPE); 1,2-distearoyl-sn-glycero-3-phosphoethanolamine-N-[methoxy(polyethylene glycol)-2000] (ammonium salt) (PEG2000PE); KDO2; cholesterol; and a fluorophore (either rhodamine or 1,1′-Dioctadecyl-3,3,3′,3′-Tetramethylindodicarbocyanine, 4-Chlorobenzenesulfonate Salt (DiD)). Each formulation contained DSPC and DOPE at a 2.14:1 molar ratio to form a stable, spherical nanoparticle. In addition, cholesterol at a 30 molar percent was incorporated to increase rigidity and to reduce leakiness. PEG(2000)-PE at 2.5 molar percent was incorporated for biological stability, KDO2 was added to all formulations at 0.1 molar percent, and a fluorescent probe (rhodamine or DiD) was added at 0.2 molar percent for subsequent biodistribution imaging studies. Keeping the molar ratios of these key components constant, dihexadecyl phosphate (DHP) was incorporated at 10 molar percent for the anionic formulation and positively charged lipid 1,2-dioleoyl-3-trimethylammonium-propane (chloride salt) (DOTAP) at 7 molar percent for the cationic formulation. The lipid mixtures were then dried down in a nitrogen blower for roughly 2 hours until all of the chloroform was evaporated. Then, the peptide solutions, (or 1×PBS for the “ghost” formulation), was added to the dried down lipids, the tubes were then vortexed and placed in a heat shaker at 60° C. for 2 hours, followed by sonication in a 60° C. sonic bath for roughly five minutes. After sonication, the liposomes were extruded through a 100-nanometer pore membrane eleven times to create uniformly sized liposomes. The extruded liposomes were subsequently run through a Sepharose gel bead column to separate the liposomal drugs from the free drug. The solution was analyzed using Dynamic Light Scattering (DLS; polydispersity and average hydrodynamic diameter of particles in solution), and mass spectrometry.
(§2) To further ensure optimal encapsulation efficiency of the MHPs, distinct dissolution buffers tailored to each peptide's optimal pH range and previously optimized for in vivo injection of the free peptides into patients enrolled in earlier clinical studies were utilized. Specifically, for the neutral peptide formulations, 1.33 mg/ml sodium bicarbonate (NaHCO3) in a 1:2 solution of lactated Ringers solution (LR) and water respectively (B1); for the cationic formulation, 5 mg/ml NaHCO3 in water (B2); for the WNR anionic formulation, 1 mg/ml NaHCO3 in water (B3); and for the TSYVKVLHHMVKISG (TSY; SEQ ID NO: 1) anionic formulation, 1:9 ratio of 2-(N-morpholino) […] (MES) buffer and water (B4).
Each of the six Melanoma Helper Peptides (6MHP) were initially incorporated in a neutral liposome formulation containing: (DSPC); (DOPE); (PEG2000PE); KDO2; cholesterol; and a fluorophore in ratios of 4.60:2.14:0.25:0.01:3.00:0.02 respectively (see Table 2). After quantifying initial encapsulation masses, an iterative approach was utilized to improve encapsulation via modifying the charge and lipid ratios of the liposomal formulation as well as the buffer for the peptide. The proportional improvements in encapsulation as well as the encapsulation efficiencies are depicted in Table 3.

[2] = Ideal pH range for peptide stability and dissolution; format: physicochemical; details: pH range required for stability and dissolution of the peptide
Excerpt: as §1, §2

[3] = tested on: CD4^+ T cells from sentinel immunized nodes (SIN1, SIN2); assay: CFSE dye-dilution CD4+ T cell proliferation assay, sentinel immunized node cells; format: cell-based, human; details: SIN1 and SIN2 donor cells, 2 μg/mL peptide, 5 days
Excerpt: (§3) Ex Vivo Lymphocyte Stimulation using Immunogenic TSY encapsulated nanoliposomes. Freshly obtained (cryopreserved) peripheral blood mononuclear cells (PBMC) and lymphocytes from the sentinel immunized nodes (SIN) of two patient donors (under IRB protocols, clinical trial Mel41 (NCT00089219; IRB #10464; Slingluff et al., 2008b) were utilized to assess CD4^+ T cell proliferation after treatment with the anionic TSY (MAGE-3281-295 peptide; Table 1) MIP-KDO2 nanoliposome. Firstly, a cell viability study was performed using a live-dead marker and flow cytometry to ensure that cell viability was not impacted by the presence of either the peptides or the liposomes. In this study, SIN lymphocytes from the two patient donors (SIN1 and SIN2) were treated with a variety of free peptides and liposome combinations. […] Cells were acquired on a FACSCANTO™ II flow cytometer (BD Biosciences) maintained by the Carter Immunology Center at the University of Virginia and the data analyzed using FlowJo software (version 10; BD Biosciences).
(§4) Using blood samples from melanoma patients who had previously been vaccinated with a 6MHP vaccine on the Mel41 trial and had developed a robust CD4^+ T cell immune response to the TSY antigen (Slingluff et al., 2008b), lymphocyte viability and CD4^+ T cell proliferation to the TSY nano-formulations ex vivo were analyzed. […]

SIN lymphocytes = assay: Lymphocyte viability, live-dead marker and flow cytometry; format: cell-based, human; details: patient SIN samples; free TSY compared with nanoliposomal KDO2/TSY
Excerpt: as §3, §4

## FLLHHAFVDSIFEQWLQRHRP (listed as Homo sapiens) [melanoma helper peptide, amino acids 386-406 of human tyrosinase]
[1]
  Original mass encapsulation: 28.15 ± 2.05 µg/mL
  Optimized mass encapsulation: 58.61 ± 4.96 µg/mL
  Encap. Efficiency: 11.72%
  Encap. improvement: 2.08X
[2]
  Ideal pH range: 6.0-8.0

## AQNILLSNAPLGPQFP (listed as Homo sapiens) [melanoma helper peptide, amino acids 56-70 of human tyrosinase]
[1]
  Original mass encapsulation: 0.02 ± 0.005 µg/mL
  Optimized mass encapsulation: 6.25 ± 1.13 µg/mL
  Encap. Efficiency: 1.25%
  Encap. improvement: 312X
[2]
  Ideal pH range: 8.5-9.0

## LLKYRAREPVTKAE (listed as Homo sapiens) [melanoma helper peptide, amino acids 121-134 of human MAGE-1,2,3,6]
[1]
  Original mass encapsulation: 34.56 ± 0.69 µg/mL
  Optimized mass encapsulation: 57.26 ± 14.39 µg/mL
  Encap. Efficiency: 11.45%
  Encap. improvement: 1.66X
[2]
  Ideal pH range: 6.0-8.0

## RNGYRALMDKSLHVGTQCALTRR (listed as Homo sapiens) [melanoma helper peptide, amino acids 51-73 of human Melan-A/MART-1]
[1]
  Original mass encapsulation: 22.37 ± 0.30 µg/mL
  Optimized mass encapsulation: 19.18 ± 6.36 µg/mL
  Encap. Efficiency: 3.29%
  Encap. improvement: 0.85X
[2]
  Ideal pH range: 6.0-8.0

## TSYVKVLHHMVKISG (listed as Homo sapiens) [melanoma helper peptide, amino acids 281-295 of human MAGE-3]
[1]
  Original mass encapsulation: 0.17 ± 0.001 µg/mL
  Optimized mass encapsulation: 141.35 ± 2.18 µg/mL
  Encap. Efficiency: 28.27%
  Encap. improvement: 831X
[2]
  Ideal pH range: 5.0-5.5
[3]
  CD4^+ T cell proliferation (CFSE dilution): expected CD4^+ T cell proliferation response was observed
SIN lymphocytes
  cell viability: no discernable differences in cell viability

## WNRQLYPEWTEAQRLD
[1]
  Original mass encapsulation: 4.81 ± 0.09 µg/mL
  Optimized mass encapsulation: 7.64 ± 0.99 µg/mL
  Encap. Efficiency: 1.53%
  Encap. improvement: 1.59X
[2]
  Ideal pH range: 7.0-8.0
